Kd data for one molecule are collected here from publication PMC8464517.

The target of this assay is T1, GLUT1 (Homo sapiens), P11166.
T1 chain: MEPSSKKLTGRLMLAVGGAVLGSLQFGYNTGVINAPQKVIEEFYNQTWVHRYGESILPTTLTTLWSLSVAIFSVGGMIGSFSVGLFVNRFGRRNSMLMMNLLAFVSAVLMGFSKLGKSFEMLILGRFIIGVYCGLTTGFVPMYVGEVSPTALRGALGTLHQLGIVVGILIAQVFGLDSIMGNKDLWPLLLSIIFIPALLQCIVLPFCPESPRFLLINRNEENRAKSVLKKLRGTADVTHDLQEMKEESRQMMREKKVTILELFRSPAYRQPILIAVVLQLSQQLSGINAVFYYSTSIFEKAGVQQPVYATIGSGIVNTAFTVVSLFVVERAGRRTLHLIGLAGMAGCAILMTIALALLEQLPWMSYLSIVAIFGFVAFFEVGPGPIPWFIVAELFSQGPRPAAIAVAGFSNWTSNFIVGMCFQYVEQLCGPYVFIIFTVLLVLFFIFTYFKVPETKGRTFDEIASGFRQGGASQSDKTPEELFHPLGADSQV
The assay is described as follows: ITC. The settings on record: PIP2/MSP1E3 nanodisc; remark: other sources report otherwise.

B1: TXNIP, Q9H3M7 (protein)
chain: MVMFKKIKSFEVVFNDPEKVYGSGEKVAGRVIVEVCEVTRVKAVRILACGVAKVLWMQGSQQCKQTSEYLRYEDTLLLEDQPTGENEMVIMRPGNKYEYKFGFELPQGPLGTSFKGKYGCVDYWVKAFLDRPSQPTQETKKNFEVVDLVDVNTPDLMAPVSAKKEKKVSCMFIPDGRVSVSARIDRKGFCEGDEISIHADFENTCSRIVVPKAAIVARHTYLANGQTKVLTQKLSSVRGNHIISGTCASWRGKSLRVQKIRPSILGCNILRVEYSLLIYVSVPGSKKVILDLPLVIGSRSGLSSRTSSMASRTSSEMSWVDLNIPDTPEAPPCYMDVIPEDHRLESPTTPLLDDMDGSQDSPIFMYAPEFKFMPPPTYTEVDPCILNNNVQ
Turning to B1, the dissociation constant (Kd) came out at 3.8 µM.

The Kd is a measure of binding affinity in units of concentration. A lower Kd goes with tighter binding.
